Experimental data reported in patent US12281155 (INSTITUT PASTEUR, dated 2025).
Where a chain is given by its changes, count along the chain named.

B1: SPK002M A5 antibody (antibody, human IgG1, kappa, V domains shown)
VH: EVQLVESGGGLIQPGGSLRLSCAASVITVTSNYMSWVRQAPGKGLEWVSVIYPGGSTFYADSVKGRFTISADNSKNTLYLQMNSLRAEDTAVYYCARDLVVYGMDVWGQGTTVTVSS
VL: EIVLTQSPGTLSLSPGERATLSCRASQSVSSSYLAWYQQKPGQAPRLLIYGASSRATGIPGRFSGSGSGTDFTLTISRLEPEDFAIYYCQQGVTFGGGTKVEIKR
B2: SPK002M B1 antibody (antibody, human IgG1, kappa, V domains shown)
VH: B1 VH with V26I, A71Y
VL: B1 VL with S31D, Q91Y
B3: SPK002M B2 antibody (antibody, human IgG1, kappa, V domains shown)
VH: B1 VH with V26I, A71Y
VL: B1 VL
B4: SPK002M C1 antibody (antibody, human IgG1, kappa, V domains shown)
VH: B1 VH with V26I, I51A, A71T
VL: B1 VL with S31D, I86V, Q91Y

molecular target: T1, recombinant SARS-CoV-2 Spike RBD domain, BQ.1.1 variant (SARS-CoV-2); assay: competition ELISA, blocking of RBD binding to ACE2 ectodomain
T1 construct: also called RBD BQ.1.1. variant

Binder	Blocking %
B1	96%
B2	97%
B3	95%
B4	97%

molecular target: T2, recombinant SARS-CoV-2 Spike RBD domain, BA.4/5 variant (SARS-CoV-2); assay: as above
T2 construct: also called RBD BA.4/5 variant

Binder	Blocking %
B1	96%
B2	95%
B3	91%
B4	97%

molecular target: T3, recombinant SARS-CoV-2 Spike RBD domain, BA.2.75.2 variant (SARS-CoV-2); assay: as above
T3 construct: also called RBD BA.2.75.2 variant

Binder	Blocking %
B1	95%
B2	91%
B3	91%
B4	95%

molecular target: T4, recombinant SARS-CoV-2 Spike RBD domain, BA.2 variant (SARS-CoV-2); assay: as above
T4 construct: also called RBD BA.2. variant

Binder	Blocking %
B1	93%
B2	95%
B3	92%
B4	95%

molecular target: T5, recombinant SARS-CoV-2 Spike RBD domain, EG.5 variant (SARS-CoV-2); assay: as above
T5 construct: also called RBD EG.5.1 variant

Binder	Blocking %
B1	83%
B2	95%
B3	70%
B4	96%

molecular target: T6, recombinant SARS-CoV-2 Spike RBD domain, XBB.1.16 variant (SARS-CoV-2); assay: as above
T6 construct: also called RBD XBB.1.16 variant

Binder	Blocking %
B1	95%
B2	97%
B3	92%
B4	96%

molecular target: T7, recombinant SARS-CoV-2 Spike RBD domain, XBB.1.5 variant (SARS-CoV-2); assay: as above
T7 construct: also called RBD XBB.1.5 variant

Binder	Blocking %
B1	95%
B2	97%
B3	92%
B4	96%

molecular target: T8, recombinant SARS-CoV-2 Spike RBD domain, Delta variant (SARS-CoV-2); assay: as above
T8 construct: also called RBD Delta variant

Binder	Blocking %
B1	93%
B2	91%
B3	88%
B4	94%

molecular target: T9, recombinant SARS-CoV-2 Spike RBD domain, BA.2.86 variant (SARS-CoV-2); assay: as above
T9 construct: also called RBD BA.2.86 variant

Binder	Blocking %
B1	84%
B2	94%
B3	86%
B4	96%

molecular target: T10, recombinant SARS-CoV-2 Spike RBD domain, JN-1 variant (SARS-CoV-2); assay: as above
T10 construct: also called RBD JN-1 variant

Binder	Blocking %
B1	2%
B2	66%
B3	0%
B4	83%

molecular target: Spike protein of SARS-CoV-2 strain BA.2.86 (hCoV-19/France/IDF-IPP17625/2023) (SARS-CoV-2); assay: cell-based or functional assay

Binder	IC50, S-Fuse neutralization of live virus
B1	0.08 µg/mL
B2	0.03 µg/mL
B3	0.19 µg/mL
B4	0.03 µg/mL

molecular target: Spike protein of SARS-CoV-2 strain D614G (hCoV-19/France/GE1973/2020) (SARS-CoV-2, UniProt P0DTC2 14-1273); assay: cell-based or functional assay

Binder	IC50, S-Fuse neutralization of live virus
B1	0.09 µg/mL
B2	0.11 µg/mL
B3	0.09 µg/mL
B4	0.08 µg/mL

molecular target: Spike protein of SARS-CoV-2 strain XBB.1.16 (hCoV-19/France/GES-IPP7712/2023) (SARS-CoV-2); assay: cell-based or functional assay

Binder	IC50, S-Fuse neutralization of live virus
B1	0.36 µg/mL
B2	0.18 µg/mL
B3	0.32 µg/mL
B4	0.12 µg/mL

molecular target: Spike protein of SARS-CoV-2 strain JN.1 (hCoV-19/France/HDF-IPP21391/2023) (SARS-CoV-2); assay: cell-based or functional assay

Binder	IC50, S-Fuse neutralization of live virus
B1	50.9 µg/mL
B2	4.1 µg/mL
B3	85.8 µg/mL
B4	1.73 µg/mL

molecular target: Spike protein of SARS-CoV-2 strain XBB.1.5 (GISAID EPI_ISL_16353849) (SARS-CoV-2); assay: cell-based or functional assay

Binder	IC50, S-Fuse neutralization of live virus
B1	0.12 µg/mL
B2	0.07 µg/mL
B3	0.14 µg/mL
B4	0.07 µg/mL

molecular target: Spike protein of SARS-CoV-2 strain EG.5.1 (hCoV-19/France/GES-IPP15954/2023) (SARS-CoV-2); assay: cell-based or functional assay

Binder	IC50, S-Fuse neutralization of live virus
B1	2.86 µg/mL
B2	0.19 µg/mL
B3	5.53 µg/mL
B4	0.16 µg/mL

molecular target: T1, recombinant SARS-CoV-2 Spike RBD …; assay: ELISA on coated RBD

Binder	Binding AUC
B1	30
B2	31
B3	31
B4	31

molecular target: T2, recombinant SARS-CoV-2 Spike RBD …; assay: ELISA on coated RBD

Binder	Binding AUC
B1	32
B2	31
B3	30
B4	30

molecular target: T3, recombinant SARS-CoV-2 Spike RBD …; assay: ELISA on coated RBD

Binder	Binding AUC
B1	34
B2	30
B3	29
B4	28

molecular target: T4, recombinant SARS-CoV-2 Spike RBD …; assay: ELISA on coated RBD

Binder	Binding AUC
B1	27
B2	29
B3	26
B4	28

molecular target: T5, recombinant SARS-CoV-2 Spike RBD …; assay: ELISA on coated RBD

Binder	Binding AUC
B1	35
B2	33
B3	32
B4	32

molecular target: T6, recombinant SARS-CoV-2 Spike RBD …; assay: ELISA on coated RBD

Binder	Binding AUC
B1	31
B2	30
B3	30
B4	29

molecular target: T7, recombinant SARS-CoV-2 Spike RBD …; assay: ELISA on coated RBD

Binder	Binding AUC
B1	35
B2	31
B3	32
B4	31

molecular target: T8, recombinant SARS-CoV-2 Spike RBD …; assay: ELISA on coated RBD

Binder	Binding AUC
B1	33
B2	33
B3	32
B4	32

molecular target: T9, recombinant SARS-CoV-2 Spike RBD …; assay: ELISA on coated RBD

Binder	Binding AUC
B1	38
B2	39
B3	39
B4	38

molecular target: T10, recombinant SARS-CoV-2 Spike RBD …; assay: ELISA on coated RBD

Binder	Binding AUC
B1	32
B2	38
B3	28
B4	39
